Reference: patent US20220064216A1 (ANBITION S R L, published 2022)
Square brackets hold non-standard residues; d marks the D form. Ends that are not written are not given here. * marks the point of attachment. Met(O2) = CS(=O)(=O)CC[C@H](N)C(=O)O; Cha = N[C@@H](CC1CCCCC1)C(=O)O; Bn = c1ccc(C*)cc1

Assays:
[1] = biological target: T1, human recombinant receptor VEGFR-1, the form consisting of the seven extracellular domains of the receptor … (human, UniProt P17948 27-758); experiment: competition ELISA, VEGFR-1-Fc coated, VEGF-A as competing ligand
T1 construct: Bought reagent; also called Flt-1; not shown: Fc domain of human IgG
Procedure: The human recombinant receptor VEGFR-1, in particular the form consisting of the seven extracellular domains of the receptor fused to the Fc domain of human IgG (R&D Systems, cat No. 321-FL), was made to adhere in the wells of 96-well microplates at a concentration of 0.5 μg/ml in PBS pH 7.5 (100 μl/well) for 16 hours at room temperature (RT).
The binding reaction was conducted for one hour at 37° C., followed by one hour at room temperature.

[2] = biological target: T2, human recombinant receptor VEGFR-1, the form consisting of the seven extracellular domains of the receptor fused to the Fc domain of human IgG (R&D Systems, cat No. 321-FL) (human), P17948; experiment: competition ELISA, VEGFR-1-Fc coated, VEGF-A 5 ng/ml as competing ligand, peptide at 25000 nM
T2 chain: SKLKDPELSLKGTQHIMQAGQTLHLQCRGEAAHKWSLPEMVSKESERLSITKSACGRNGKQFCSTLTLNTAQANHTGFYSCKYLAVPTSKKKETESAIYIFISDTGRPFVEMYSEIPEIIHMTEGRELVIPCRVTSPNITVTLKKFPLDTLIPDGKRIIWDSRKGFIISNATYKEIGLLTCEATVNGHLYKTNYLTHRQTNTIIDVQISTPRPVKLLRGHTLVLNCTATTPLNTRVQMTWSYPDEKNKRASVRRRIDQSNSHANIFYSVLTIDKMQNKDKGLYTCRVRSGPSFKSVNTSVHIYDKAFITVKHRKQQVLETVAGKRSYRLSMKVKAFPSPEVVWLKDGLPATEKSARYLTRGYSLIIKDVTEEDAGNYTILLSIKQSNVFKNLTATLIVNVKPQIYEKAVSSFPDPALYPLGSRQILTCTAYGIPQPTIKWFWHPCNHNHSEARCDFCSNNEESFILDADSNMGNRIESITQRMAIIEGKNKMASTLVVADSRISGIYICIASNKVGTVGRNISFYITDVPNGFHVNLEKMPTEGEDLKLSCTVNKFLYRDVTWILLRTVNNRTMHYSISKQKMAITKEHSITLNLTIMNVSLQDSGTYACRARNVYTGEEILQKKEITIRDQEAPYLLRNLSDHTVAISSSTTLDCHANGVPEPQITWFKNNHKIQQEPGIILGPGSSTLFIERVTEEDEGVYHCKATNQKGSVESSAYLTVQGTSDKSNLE

[3] = biological target: T2, human recombinant receptor VEGFR-1, the …; experiment: competition ELISA, VEGFR-1-Fc coated, VEGF-A 5 ng/ml as competing ligand, peptide at 50000 nM
[4] = biological target: T2, human recombinant receptor VEGFR-1, the …; experiment: competition ELISA, VEGFR-1-Fc coated, PlGF 5 ng/ml as competing ligand, peptide at 50000 nM
[5] = biological target: T2, human recombinant receptor VEGFR-1, the …; experiment: competition ELISA, VEGFR-1-Fc coated, VEGF-A 5 ng/ml as competing ligand, peptide at 1560 nM
[6] = biological target: T2, human recombinant receptor VEGFR-1, the …; experiment: competition ELISA, VEGFR-1-Fc coated, PlGF 5 ng/ml as competing ligand, peptide at 6250 nM
[7] = biological target: T2, human recombinant receptor VEGFR-1, the …; experiment: competition ELISA, VEGFR-1-Fc coated, VEGF-A 5 ng/ml as competing ligand, peptide at 780 nM
[8] = biological target: T2, human recombinant receptor VEGFR-1, the …; experiment: competition ELISA, VEGFR-1-Fc coated, PlGF 5 ng/ml as competing ligand, peptide at 3125 nM
[9] = biological target: T2, human recombinant receptor VEGFR-1, the …; experiment: competition ELISA, VEGFR-1-Fc coated, PlGF as competing ligand
[10] = biological target: T2, human recombinant receptor VEGFR-1, the …; experiment: competition ELISA, VEGFR-1-Fc coated, PlGF or VEGF-A as competing ligand; reference iVR1
[11] = biological target: T2, human recombinant receptor VEGFR-1, the …; experiment: competition ELISA, VEGFR-1-Fc coated, VEGF-A 5 ng/ml as competing ligand, peptide at 12500 nM
[12] = biological target: T2, human recombinant receptor VEGFR-1, the …; experiment: competition ELISA, VEGFR-1-Fc coated, PlGF 5 ng/ml as competing ligand, peptide at 780 nM
[13] = biological target: T2, human recombinant receptor VEGFR-1, the …; experiment: competition ELISA, VEGFR-1-Fc coated, PlGF 5 ng/ml as competing ligand, peptide at 1560 nM
[14] = biological target: T2, human recombinant receptor VEGFR-1, the …; experiment: competition ELISA, VEGFR-1-Fc coated, VEGF-A 5 ng/ml as competing ligand, peptide at 6250 nM
[15] = biological target: T2, human recombinant receptor VEGFR-1, the …; experiment: competition ELISA, VEGFR-1-Fc coated, VEGF-A as competing ligand
[16] = biological target: T2, human recombinant receptor VEGFR-1, the …; experiment: competition ELISA, VEGFR-1-Fc coated, VEGF-A 5 ng/ml as competing ligand, peptide at 3125 nM
[17] = biological target: T2, human recombinant receptor VEGFR-1, the …; experiment: competition ELISA, VEGFR-1-Fc coated, PlGF 5 ng/ml as competing ligand, peptide at 12500 nM
[18] = biological target: T2, human recombinant receptor VEGFR-1, the …; experiment: competition ELISA, VEGFR-1-Fc coated, PlGF 5 ng/ml as competing ligand, peptide at 25000 nM

B1: tetrameric peptide having formula (II) with Y2 = D-serine (peptide)
peptide: [dE]-Cys(Bn)-[Cha]
chain 1: Lys
chain 2: Lys-[dS]-NH2
modifications: also: branched tetramer: four arms on both amines of two Lys, each bonded to an amine of the Lys of chain 3
notes: Described only as a tetrameric peptide of formula (II) with Y2 different from D-cysteine
An IC50 [1] of 2430 nM was found for B1 in this work.

B2: tetrameric peptide having formula (II) with Y2 = L-cysteine (peptide)
peptide: [dE]-Cys(Bn)-[Cha]
chain 1: Lys
chain 2: Lys-Cys-NH2
modifications: also: branched tetramer: four arms on both amines of two Lys, each bonded to an amine of the Lys of chain 3
notes: as for B1
An IC50 [1] of 2030 nM was found for B2 in this work.

B3: tetrameric peptide having formula (II) with Y2 = L-methionine sulfone (peptide)
peptide: [dE]-Cys(Bn)-[Cha]
chain 1: Lys
chain 2: Lys-[Met(O2)]-NH2
modifications: also: branched tetramer: four arms on both amines of two Lys, each bonded to an amine of the Lys of chain 3
notes: as for B1
An IC50 [1] of 4620 nM was found for B3 in this work.

B4: iVR1-Cys, tetrameric peptide of formula (IIb): [H-(R-Glu)-(S-Cys(Bzl))-(S-Cha)]4-Lys2-Lys-(D-Cys)-NH2 (peptide)
peptide: H-[dE]-Cys(Bn)-[Cha]
chain 1: Lys
chain 2: Lys-[dC]-NH2
modifications: also: branched tetramer: four arms on alpha and epsilon amines of two Lys, each bonded to an amine of the Lys of chain 3
A binding % (residual VEGF-A binding to VEGFR-1) [2] of 7.99%, a binding % (residual VEGF-A binding to VEGFR-1) [3] of 6.5% and a binding % (residual PlGF binding to VEGFR-1) [4] of 9.18% were found for B4 in this work. It also gave a binding % (residual VEGF-A binding to VEGFR-1) [5] of 43.7%, a binding % (residual PlGF binding to VEGFR-1) [6] of 14.1% and a binding % (residual VEGF-A binding to VEGFR-1) [7] of 92.3%. For the same binder, the binding % (residual PlGF binding to VEGFR-1) [8] was 25.5%, the IC50 [9] was less than 1000 nM and the inhibitory capacity, fold against iVR1 [10] was 10 fold. For the same binder, the binding % (residual VEGF-A binding to VEGFR-1) [11] was 9.81%, the binding % (residual PlGF binding to VEGFR-1) [12] was 83.8% and the binding % (residual PlGF binding to VEGFR-1) [13] was 35.5%. It also gave a binding % (residual VEGF-A binding to VEGFR-1) [14] of 12.5%, an IC50 [15] of 1000 nM and a binding % (residual VEGF-A binding to VEGFR-1) [16] of 21.7%. The binding % (residual PlGF binding to VEGFR-1) [17] was 12.6% and the binding % (residual PlGF binding to VEGFR-1) [18] was 10.3%.

B5: iVR1, tetrameric peptide of formula (IIc): [H-(R-Glu)-(S-Cys(Bzl))-(S-Cha)]4-Lys2-Lys-Gly-NH2 (peptide)
peptide: H-[dE]-Cys(Bn)-[Cha]
chain 1: Lys
chain 2: Lys-Gly-NH2
modifications: also: branched tetramer: four arms on alpha and epsilon amines of two Lys, each bonded to an amine of the Lys of chain 3
A binding % (residual VEGF-A binding to VEGFR-1) [2] of 21.4%, a binding % (residual VEGF-A binding to VEGFR-1) [3] of 8.6% and a binding % (residual PlGF binding to VEGFR-1) [4] of 26.3% were found for B5 in this work. For the same binder, the binding % (residual VEGF-A binding to VEGFR-1) [5] was 96.2%, the binding % (residual PlGF binding to VEGFR-1) [6] was 68.5% and the binding % (residual VEGF-A binding to VEGFR-1) [7] was 98.4%. It also gave a binding % (residual PlGF binding to VEGFR-1) [8] of 96.1%, an IC50 [9] of 10000 nM and a binding % (residual VEGF-A binding to VEGFR-1) [11] of 37%. The binding % (residual PlGF binding to VEGFR-1) [12] was 99.4%, the binding % (residual PlGF binding to VEGFR-1) [13] was 101% and the binding % (residual VEGF-A binding to VEGFR-1) [14] was 66%. It also gave an IC50 [15] of 10000 nM, a binding % (residual VEGF-A binding to VEGFR-1) [16] of 93.9% and a binding % (residual PlGF binding to VEGFR-1) [17] of 44.6%. The binding % (residual PlGF binding to VEGFR-1) [18] was 36%.
